The results in this text go back to the DeepSol protein solubility set.

The data set in a line: soluble on expression in E. coli; label from the status in PepcDB or PDB records.
Consider “MGHHHHHHSHLPAIRTLQSLAFHPNVTFIIGENGTGKSTLLEGIAIALGFNAEGGTKNFRFSTNDSHSSLHEYLRISKSFNTPSDGFFLRAESFYNVASYIDEIDADLEARGNPVIDSYGGISLHEQSHGESFFSLFMNRFSGQGLYILDEPEAALSPMRQLSMLIRMHELAEQGSQFVIATHSPILMAYPESTIYSLTQEG”, for which the “soluble on expression in E. coli” value is reported as “not soluble”.
Next, “MGHHHHHHSHMAAPEAEVLSSAAVPDLEWYEKSEETHASQIELLETSSTQEPLNASEAFCPRDCMVPVVFPGPVSQEGCCQFTCELLKHIMYQRQQLPLPYEQLKHFYRKPSPQAEEMLKKKPRATTEVSSRKCQQALAELESVLSHLEDFFARTLVPRVLILLGGNALSPKEFYELDLSLLAPYSVDQSLSTAACLRRLFRAIFMADAFSELQAPPLMGTVVMAQGHRNCGEDWFRPKLNYRVPSRGHKLTVTLSCGRPSIRTTAWEDYIWFQAPVTFKGFRE”: “not soluble”; “MGHHHHHHSHMAAPGLRLGAGRLFEMPAVLERLSRYNSTSQAFAEVLRLPKQQLRKLLYPLQEVERFLAPYGRQDLHLRIFDPSPEDIARADNIFTATERNRIDYVSSAVRIDHAPDLPRPELEENIFISG”: “not soluble”; “MGHHHHHHSHMAKTYDYLFKLLLIGDSGVGKTCVLFRFSEDAFNSTFISTIGIDFKIRTIELDGKRIKLQIWDTAGQERFRTITTAYYRGAMGIMLVYDITNEKSFDNIRNWIRNIEEHASADVEKMILGNKCDVNDKRQVSKERGEKLALDYGIKFMETSAKANINVENAFFTLARDIKAKMDKKLEGNSPQGSNQGVKITPDQQKRSSFFRCVLL”: “soluble”.
Next, “MGHHHHHHSHMANSAGSMANSAGSMHLVVESFPSYRDVTLFEGKRVSFYKRAQILVADTWSVLEGKGDGCFKDISSITMFADYRLPQVLAHLGALKYSDDLLKKLLKGEMLSYGDRQEVEIRGCSLWCVELIRDCLLELIEQKGEKPNGEINSILLDYYLWDYAHDHREDMKGIPFHRIRCIYY”: “not soluble”.
Turning to “MGHHHHHHSHMAPPRIGTHNGTFHCDEALACALLRLLPEYRDAEIVRTRDPEKLASCDIVVDVGGEYDPRRHRYDHHQRSFTETMSSLSPGKPWQTKLSSAGLIYLHFGHKLLAQLLGTSEEDSMVGTLYDKAGFKRAMDLVQEEFLQRLDFYQHSWLPARALVEEALAQRFQVDPSGEIVELAKGACPWKEHLYHLESGLSPPVAIFFVIYTDQAGQWRIQCVPKEPHSFQSRLPLPEPWRGLRDEALDQVSGIPGCIFVHASGFIGGHRTREGALSMARATLAQRSYLPQIS”, the “soluble on expression in E. coli” value was “soluble”.
For the sequence “MGHHHHHHSHMDNCLAAAALNGVDRRSLQRSARLALEVLERAKRRAVDWHALERPKGCMGVLAREAPHLEKQPAAGPQRVLPGEREERPPTLSASFRTMAEFMDYTSSQCGKYYSSVPEEGGATHVYRYHRGESKLHMCLDIGNGQRKDRKKTSLGPGGSYQISEHAPEASQPAENISKDLYIEVYPGTYSVTVGSNDLTKKTHVVAVDSGQSVDLVFPV”, the “soluble on expression in E. coli” value is “not soluble”.
Next, “MGHHHHHHSHMDVVKEIMAAIKQYETIIIHRHQRPDPDAIGSQVGLAELLRASFPEKNIYQVGGPVEGLEFLAEMDVITDDVYRGALVIVTDTANAPRISDARFSLGDQLIKIDHHPNDEPYGDLVWVNTNASSCSEIIVDFWQQHLAELTMTDNAARLLYAGIVGDTGRFLYPSTSAHTLAVAAQLRTFNFNAADLNRELDQMPLKVAKLAGYIYQNLEIDANGAARVVLPQSILNSYDIVDSETAAIVSMPGKIEDVLSWAIFVEQPEGYYRVRLRSKGPIINTIAKKHHGGGHPLASGANARDAAEIEVIYQEIQAACQEWAQK”: “soluble”.
Next, “MGHHHHHHSHMEETRAGRYIVRAGSGGQTEDTASGAESVLATLAAVRTRRRSVVCDGPPGSPTDSARHMSDLASLALTAEFGLGCLEAYVRINAGQVLPVVWPPGWNLVLQEIETDEDFKPEDVKAWSHYLCCQTRLAFVGRFVNEGVLSPDQQKKTAVCLISDEGYVFCYVREDTAVYYLARNLMEFARVGLRAVETLHCMRYLTSSLVKRYFRPLLRAWSLGLDTMARFIIRHHGQFMPLTYPPGTELRLCNLRCFENSVEGGHLLRNIKTAFGMRVLGLGTVSLKGENAPFPHLRWPVDLIPIVVAYTGAVYACDVRDDRYIRVGDNLNTFMCLGLNLLFENRRFSGHNGIYDRVPDCPKGRQHR”: “not soluble”.
Turning to “MGHHHHHHSHMEEVLEAAEKIRSMEVRGAARIARFAAETLMKFAEKASDEKFDEEMRFAAETLLNTRPTAVSLYNAINYVMRYSGESVEEKRQSVIRRAREFINWVETAQRKIGEIGEKRIKDGYTVMTHCNSSAALSVIKKAHENGKRVEVIATESRPRWQGHLTVKQLREAGIEVTLIVDSAVRYFINEVDCVVVGADTITANGALINKIGTSQIALAAKEARVPFMVAAETYKFSPKTLFGELVVIEERDAREVAPEEILKLGVKVRNPAFDVTPRDYIDVIITEIGAIPPEMAYIVITERLGYAGIEEEEITLNSRHFD”, the “soluble on expression in E. coli” value was “not soluble”.
Next, “MGHHHHHHSHMEFLTFLKSDYTHANLVDKALQLLKERILKGDTLAYFLRGQLYFEEGWYEEALEQFEEIKEKDHQATYQLGVMYYDGLGTTLDAEKGVDYMKKILDSPCPKARHLKFAAAYNLGRAYYEGKGVKRSNEEAERLWLIAADNGNPKASVKAQSMLGLYYSTKEPKELEKAFYWHSEACGNGNLESQGALGLMYLYGQGIRQDTEAALQCLREAAERGNVYAQGNLVEYYYKMKFFTKCVAFSKRIADYDEVHDIPMIAQVTDCLPEFIGRGMAMASFYHARCLQLGLGITRDETTAKHYYSKACRLNPALADELHSLLIRQRI”: “not soluble”.
Next, “MGHHHHHHSHMERIVMPANYVHTRTTPFWTKETAPASIWRRHLDAGTRQGVYPRLCVMQGTIRYYGYADETSPEPVETLTIEAGQFGVFPPEKWHRIEALSDDTLFNVDFYVDPKILIEG”: “soluble”.
Next, “MGHHHHHHSHMEWKVKVRSDGTRYVAKRPVRDRLLKARALKIREERSGMTTDDDAVSEMKMGRYWSKEERKQHLIRAREQRKRREFMMQSRLECLREQQNGDSKPELNIIALSHRKTMKKRNKKILDNWITIQEMLAHGARSADGKRVYNPLLSVTTV”: “not soluble”.
With “MGHHHHHHSHMFDAAFDPVLTVNSGDSVTVECVSGGVEVMPPAESPYAIPSALQAIHDSNPPRIGPHILTGPIAIAGAEPGDILEVRIEAIEPNNDWGYCAVRPLAGTLPEDFPERYVSHIAVDAQRGVCKPEWGPELPLAPFFGTMGVAPPAKYGRLSSREPREHGGNMDNKELVAGSTLYLPVWVPGANFSVGDGHGRQGDGEVCVNALEMGLTGTFTFVLHKKANGAADIAPFAWPRAETPTHYVLMGFHEDLDLAMKQALRQTIDFITARSNLTRVQAYQFCSLAVDFRVTQTVNGEKGVHALLSKGLLF”, the “soluble on expression in E. coli” value was “not soluble”.
For “MGHHHHHHSHMGLYHVGQAGLELLTSSDPPTSASQNAEITGVSHRAQSKAHNLQRKLRLSHKSSPPCTYTQHAGGVDSHPLTQDMCVIVNVIARPFDKCNCDIYLGLASELFVVSWVQLTVPYHWIQTLGNVILFCLDTAHRGHCDIAGHCT”, the “soluble on expression in E. coli” value is listed as “not soluble”.
With “MGHHHHHHSHMHGPKPTVQEIVLELCPCNEIEPVDLVCHEQLGDSDDEIDEPDHAVNHHQHQLLARRDEQQRHTIQCTCCKCNNLLQLVVEASRENLRKLELLFMDSLNFVCPWCATETQ”, the “soluble on expression in E. coli” value is “not soluble”.
Consider “MGHHHHHHSHMILEIRTKNFIFRTKHKLDFTPIGCDAKGRIVLGYTEAELCTRGSGYQFIHAADMLYCAESHIRMIKTGESGMIVFRLLTKNNRWTWVQSNARLLYKNGRPDYIIVTQRPLTDEEGTEHLRKRNTKLPFMF”, for which the “soluble on expression in E. coli” value is “soluble”.
Regarding “MGHHHHHHSHMKDIGHLQHLAQRLQWNRRAVNICGMHGWTKDLSPHSRMPSMLEHVKHYMSC”, the “soluble on expression in E. coli” value is “not soluble”.
Next, “MGHHHHHHSHMKNYKAIGKIGEGTFSEVMKMQSLRDGNYYACKQMKQRFESIEQVNNLREIQALRRLNPHPNILMLHEVVFDRKSGSLALICELMDMNIYELIRGRRYPLSEKKIMHYMYQLCKSLDHIHRNGIFHRDVKPENILIKQDVLKLGDFGSCRSVYSKQPYTEYISTRWYRAPECLLTDGFYTYKMDLWSAGCVFYEIASLQPLFPGVNELDQISKIHDVIGTPAQKILTKFKQSRAMNFDFPFKKGSGIPLLTTNLSPQCLSLLHAMVAYDPDERIAAHQALQHPYFQEQRKTEKRAL”: “not soluble”.
Next, “MGHHHHHHSHMKNYYYFLGQGLTLSPRLECSSTISAHCNLHLLGSSNSPVAASPVAGTTGTCHHDWLIFVFLVETGFHHIGQTGLEFLTSGDPPTLASKSAGITGVSHCAWPTFLLNDMRHSFNKNLVIIFYVPAIS”: “not soluble”; “MGHHHHHHSHMKRSLSENSARSTADWAWEAVNPELAPVMKTVDTGQIPHSVSRPLRSQDSVFNSIQSNTGRSQGGWSYRDGNKNTSLKTWNKNDFKPQCKRTNLVANDGKNSCPVSSGAQQQKQLRIPEPPNLSRNKETELLRQTHSSKISGCTMRGLDKNSALQTLKPNFQQNQYKKQMLDDIPEDNTLKETSLYQLQFKEKASSLRIISAVIESMKYWREHAQKTVLLFEVLAVLDSAVTPGPYYSKTFLMRDGKNTLPCVFYEIDRELPRLIRGRVHRCVGNYDQKKNIFQCVSVRPASVSEQKTFQAFVKIADVEMQYYINVMNET”: “not soluble”; “MGHHHHHHSHMKVQGAGQLRLSIDAQDRVLLLHIIEGKGLISKQPGTCDPYVKISLIPEDSRLRHQKTQTVPDCRDPAFHEHFFFPVQEEDDQKRLLVTVWNRASQSRQSGLIGCMSFGVKSLLTPDKEISGWYYLLGEHLGRTKHLKVARRRL”: “soluble”.
Next, “MGHHHHHHSHMLAWHVLMGNQVIWKSRDVDLVQSAFEVLRTMLPVGCVRIIPYSSQYEEAYRCNFLGLSPHVQIPPHVLSSEFAVIVEVHAAARSTLHPVGCEDDQSLSKYEFVVTSGSPVAADRVGPTILNKIEAALTNQNLSVDVVDQCLVCLKEEWMNKVKVLFKFTKVDSRPKEDTQKLLSILGASEEDNVKLLKFWMTGLSKTYKSHLMSTVRSPTASESRN”: “not soluble”.
On to “MGHHHHHHSHMLDVYACHCTLCQKWSGGIAMYLEACGQPQLAPLSPEPPYFSSSSRGERYFCSGCGCPLWFRLTDTDRYFIPWTLLELNEVDRRRLILAAEIYTETQPAFWRLTGQYARLSGKEVEEMDSPCQLAH”, for which the “soluble on expression in E. coli” value was “not soluble”.
Next, “MGHHHHHHSHMLEILYQDEWLVAVNKPSGWLVHRSWLDRDEKVVVMQTVRDQIGQHVFTAHRLDRPTSGVLLMGLSSEAGRLLAQQFEQHQIQKRYHAIVRGWLMEEAVLDYPLVEELDKIADKFAREDKGPQPAVTHYRGLATVEMPVATGRYPTTRYGLVELEPKTGRKHQLRRHLAHLRHPIIGDSKHGDLRQNRSGAEHFGLQRLMLHASQLSLTHPFTGEPLTIHAGLDDTWMQALSQFGWRGLLPENERVEFSAPSGQDGEISS”: “soluble”; “MGHHHHHHSHMPVIQTESEHKPPVNGSYFAHVNPADGGCLLEKYSEKCHDFQCALLANLFASEGQPGKVIEVKAKRRTGPLNFVTCMRETLEKHYGNKPIGMGGTFIIQKGKVKSHIMPAEFSSCPLNSDEEVNKWLHFYEMKAPLVCLPVFVSRDPGFDLRLEHTHFFSRHGEGGHYHYDTTPDIVEYLGYFLPAEFLYRIGQPKETHSIGRD”: “not soluble”.
